Results on two molecules are retold here after US20240101663A1 (BIOTROY THERAPEUTICS, published 2024).

B2: CCDC112 recombinant protein (coiled-coil domain-containing protein 112) (ligand)
chain: MEKDKHSHFYNQKSDFRIEHSMLEELENKLIHSRKTERAKIQQQLAKIHNNVKKLQHQLKDVKPTPDFVEKLREMMEEIENAINTFKEEQRLIYEELIKEEKTTNNELSAISRKIDTWALGNSETEKAFRAISSKVPVDKVTPSTLPEEVLDFEKFLQQTGGRQGAWDDYDHQNFVKVRNKHKGKPTFMEEVLEHLPGKTQDEVQQHEKWYQKFLALEERKKESIQIWKTKKQQKREEIFKLKEKADNTPVLFHNKQEDNQKQKEEQRKKQKLAVEAWKKQKSIEMSMKCASQLKEEEEKEKKHQKERQRQFKLKLLLESYTQQKKEQEEFLRLEKEIREKAEKAEKRKNAADEISRFQERDLHKLELKILDRQAKEDEKSQKQRRLAKLKEKVENNVSRDPSRLYKPTKGWEERTKKIGPTGSGPLLHIPHRAIPTWRQGIQRRV
notes: also called CCDC112 protein; full-length CCDC112 protein

Assay [1] concerns the target B2. Briefly: ELISA, coated full-length CCDC112 protein, antibody titrated; table gives no unit, unit from the x axis Ab(nM). On the technique in general: An ELISA detects its analyte on a solid surface through an enzyme-linked reagent.
Assay [2] concerns the target B2. Briefly: bio-layer interferometry (ProbeLife Gator), antibody (200 nM) immobilized, antigen 15 nM to 1.875 nM. The procedure:
The dissociation constant (KD) of the antibody of the invention binding to human CCDC112 was determined using bio-layer interferometry on ProbeLife Gator according to conventional procedures.

The target of assay [3] is T1, CCDC112 on HCT116 tumor cells (including HCT116 cells stably overexpressing CCDC112) (human, UniProt Q8NEF3 1-446).
T1 construct: also called CCDC112 on the surface of tumor cells; HCT116-CCDC112
T1 sequence: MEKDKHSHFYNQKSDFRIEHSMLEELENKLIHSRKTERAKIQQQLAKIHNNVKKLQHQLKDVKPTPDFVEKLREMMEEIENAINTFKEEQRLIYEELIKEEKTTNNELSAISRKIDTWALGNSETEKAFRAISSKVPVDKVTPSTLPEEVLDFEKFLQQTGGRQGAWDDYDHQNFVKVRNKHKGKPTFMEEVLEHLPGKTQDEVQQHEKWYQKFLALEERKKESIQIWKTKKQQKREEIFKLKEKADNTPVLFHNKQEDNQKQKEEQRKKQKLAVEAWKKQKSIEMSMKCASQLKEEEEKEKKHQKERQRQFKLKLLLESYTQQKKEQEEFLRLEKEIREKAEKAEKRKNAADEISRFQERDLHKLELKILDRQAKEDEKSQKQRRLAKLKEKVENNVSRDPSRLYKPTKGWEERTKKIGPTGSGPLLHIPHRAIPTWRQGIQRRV
Briefly: flow cytometry on HCT116 cells overexpressing CCDC112; table gives no unit, unit from the x axis 'Abs conc. nM'. The procedure:
Further, the specific binding of the CCDC112 antibody to the antigen was verified by flow cytometry. The HCT116 cell line overexpressing CCDC112 was constructed by stable transfection of liposome, and the cells and the CCDC112 antibody were co-incubated, the unbound antibody was washed away, and then the anti-mouse secondary antibody (FITC modified) was used for flow cytometry and the percentage of cells that stain positive was analyzed.
Background: A flow cytometer gives signals particle by particle.

The target of assay [4] is T2, LTBR-hFc (LTBR extracellular region protein fragment labeled with hFc) (UniProt P36941 31-227).
T2 construct: extracellular domain; Bought from ACRO Biosystems or Sino Biological; also called lymphotoxin-beta receptor; TNFRSF3
T2 sequence (P36941 31-227): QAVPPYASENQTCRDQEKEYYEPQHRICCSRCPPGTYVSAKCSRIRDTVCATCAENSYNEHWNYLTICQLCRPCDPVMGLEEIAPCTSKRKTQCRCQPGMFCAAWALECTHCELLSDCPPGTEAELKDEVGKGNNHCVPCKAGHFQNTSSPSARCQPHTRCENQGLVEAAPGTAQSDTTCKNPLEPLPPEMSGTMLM
Briefly: ELISA at pH 5.5, coated CCDC112 gradient, LTBR-hFc 0.5 µg/mL; table gives no unit, unit from the x axis; target from the plot title (legend names CD30). As to the method:
(§1) Specifically, a special plate for ELISA (costar, ME, USA) was used. Firstly, different concentrations of CCDC112 recombinant proteins were dissolved in 100 μL of ELISA coating solution (Solarbio, Beijing, China) to coat the plate, and the negative control was coated with 100 μL of coating solution without protein. The plate was coated overnight at 4° C. After washing with PBST, 100 μL of 5% BSA dissolved in PBS (VWR, PA, USA) was used for blocking in the incubator at 37° C. for 90 min. […] The above-mentioned receptor protein was labeled with hFc (P-Fc) and binding was carried out in the incubator at 37° C. for 60 min. After washing with PBST, a specific anti-human Fc fragment antibody (Abcam, MA, USA) diluted in PBS was used for incubation and binding at 37° C. for 30 min. After washing with PBST, chromogenic solution (Sangon, Shanghai, China) was added at 100 μL per well for color development and reacted in an incubator for 5-30 min, and then 50 μL of stop solution (Sangon, Shanghai, China) was added, and chromogenic reading was then carried out under a microplate reader (Thermo Fisher, MA, USA) at 450 nm.

Assay [5] concerns the target T3, CD30 extracellular region protein fragment labeled with hFc (UniProt P28908 19-385).
T3 construct: extracellular domain; Bought from ACRO Biosystems or Sino Biological; not shown: human Fc label (hFc)
T3 sequence (looked up): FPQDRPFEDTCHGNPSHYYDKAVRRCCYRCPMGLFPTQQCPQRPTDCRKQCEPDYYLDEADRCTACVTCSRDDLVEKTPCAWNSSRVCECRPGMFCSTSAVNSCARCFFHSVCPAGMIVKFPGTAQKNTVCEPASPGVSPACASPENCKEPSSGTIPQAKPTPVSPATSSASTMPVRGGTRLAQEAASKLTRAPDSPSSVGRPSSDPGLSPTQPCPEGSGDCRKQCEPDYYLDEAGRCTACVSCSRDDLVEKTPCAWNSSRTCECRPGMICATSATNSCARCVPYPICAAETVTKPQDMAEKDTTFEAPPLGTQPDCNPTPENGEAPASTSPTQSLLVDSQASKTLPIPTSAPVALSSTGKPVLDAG
Briefly: ELISA at pH 6.5, coated CCDC112 gradient, CD30-hFc 0.5 µg/mL; table gives no unit, unit from the x axis; target from the plot title (legend names LTBR). As to the method: as §1

Assay [6] addresses T3, CD30 extracellular region protein …. Briefly: ELISA at pH 6, coated CCDC112 gradient, CD30-hFc 0.5 µg/mL; table gives no unit, unit from the x axis; target from the plot title (legend names LTBR). As to the method: as §1
The target is the same in assay [7]. Briefly: ELISA at pH 7, coated CCDC112 gradient, CD30-hFc 0.5 µg/mL; value lies above the highest concentration shown, curve has no plateau; table gives no unit, unit from the x axis; target from the plot title (legend names LTBR). The procedure:
as §1

For assay [8], the target named is T2, LTBR-hFc (LTBR extracellular region …). Briefly: ELISA at pH 6, coated CCDC112 gradient, LTBR-hFc 0.5 µg/mL; table gives no unit, unit from the x axis; target from the plot title (legend names CD30). The procedure: as §1
For assay [9], the target named is T3, CD30 extracellular region protein …. Briefly: ELISA at pH 5.5, coated CCDC112 gradient, CD30-hFc 0.5 µg/mL; table gives no unit, unit from the x axis; target from the plot title (legend names LTBR). The procedure: as §1
Assay [10] addresses T2, LTBR-hFc (LTBR extracellular region …). Briefly: ELISA at pH 7.5, coated CCDC112 gradient, LTBR-hFc 0.5 µg/mL; ambiguous fit far outside the range shown, curve nearly flat; table gives no unit, unit from the x axis; target from the plot title (legend names CD30). The procedure: as §1
Assay [11] shares this target. Briefly: ELISA at pH 6.5, coated CCDC112 gradient, LTBR-hFc 0.5 µg/mL; table gives no unit, unit from the x axis; target from the plot title (legend names CD30). The procedure:
as §1

B1: monoclonal antibody S-78-02 (antibody, V domains shown)
VH: QVQLQQSGPELVKPGASVKIPCKTSGYSFTDYNIDWVKQGLGESLEWIGDINPNYGGTMYNQKFKGKATLTVDKSSNTAYMELRSLTSEDTAVYYCAHDEFIYWGQGTLVTVSA
VL: DIQMNQSPSSMFASLGERVTITCRASQDINTYLSWIQRKPGKSPKTLIYRANRLVDGVPSRFSGSGSGQDYSLTISSLEYEDMGIYYCLQYDEFPHTFGGGTKLEIK
notes: Mouse hybridoma monoclonal antibody raised against CCDC112 protein and detected with an anti-mouse secondary antibody; also called CCDC112 antibody; CCDC112 monoclonal antibody
One may read the EC50 as the concentration giving half of the maximal effect. In general, Kd refers to the constant that tells how readily two partners part at equilibrium. On to B1, for which the figures for the EC50 in assay [1] and in assay [3] were 0.0644 nM and 0.98 nM, respectively. The Kd in assay [2] stood at 0.468 nM.
On to B2, for which the EC50 turned out to be 0.922 µg/mL in assay [4]; 4.61 µg/mL in assay [5]; 1.91 µg/mL in assay [6]; 16.1 µg/mL in assay [7]; 1.26 µg/mL in [8]; 2.11 µg/mL in assay [9]. The figures for the EC50 in assay [10] and in [11] were approximately 18100 µg/mL and 1.94 µg/mL, respectively.
